Results published in US20100280095A1 (RIKEN, published 2010).

Molecular target: T1, endogenous Smad4 of 293T cells (UniProt Q13485 1-552)
T1 sequence (looked up): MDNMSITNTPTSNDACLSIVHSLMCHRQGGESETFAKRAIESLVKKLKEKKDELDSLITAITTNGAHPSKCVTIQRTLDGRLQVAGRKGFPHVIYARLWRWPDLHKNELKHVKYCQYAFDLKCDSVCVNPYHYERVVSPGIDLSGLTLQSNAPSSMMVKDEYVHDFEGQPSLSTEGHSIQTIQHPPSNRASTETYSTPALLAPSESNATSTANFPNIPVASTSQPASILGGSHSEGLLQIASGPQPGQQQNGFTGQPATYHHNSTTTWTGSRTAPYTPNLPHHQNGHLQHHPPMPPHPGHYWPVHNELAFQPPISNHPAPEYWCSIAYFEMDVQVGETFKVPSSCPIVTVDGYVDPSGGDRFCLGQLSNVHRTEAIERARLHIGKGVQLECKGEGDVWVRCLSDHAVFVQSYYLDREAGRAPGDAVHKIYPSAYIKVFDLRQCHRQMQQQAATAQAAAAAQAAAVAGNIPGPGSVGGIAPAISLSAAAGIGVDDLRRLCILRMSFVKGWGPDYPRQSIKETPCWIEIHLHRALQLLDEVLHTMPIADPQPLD
Test: co-immunoprecipitation: anti-c-Myc IP of 293T whole cell extract, immunoblot with anti-Smad4
Excerpt: (a) An interaction between c-Myc-tagged PDLIM2 and an endogenous Smad transcription factors; 293T cells were transfected with or without a c-Myc-tagged PDLIM2 expression plasmid (c-Myc PDLIM2) and treated to obtain whole cell extracts, which were immunoprecipitated (IP) with anti-c-Myc antibody, and immunoblotted (IB) with anti-Smad2, 3 or 4 antibody. (b) Luciferase activity in mouse embryonic fibroblasts; with or without a plasmid that encodes PDLIM2, the cells were transfected with a plasmid that encodes a TARE luciferase reporter (pTARE-Luc), after which the cells were stimulated with human TGFβ (10 ng/ml) for 6 hours and assayed.
All lysis buffers used for immunoblot analysis contained a proteinase inhibitor cocktail (Roche). Cytoplasmic and nuclear extracts were prepared as follows. Cells were lysed on ice for 10 min with hypotonic buffer (20 mM HEPES pH 8.0, 10 mM KCl, 1 mM MgCl₂, 0.1% Triton X-100, 20% glycerol). After centrifugation (5,000 rpm, 1 min), supernatants were collected and used as cytoplasmic fractions. The pellets were next lysed on ice for 20 min after brief vortexing with hypertonic buffer (20 mM HEPES pH 8.0, 1 mM EDTA, 20% glycerol, 0.1% Triton X-100, 400 mM NaCl). After centrifugation (15,000 rpm, 5 min), supernatants were collected and used as nuclear fractions. […]

B1: c-Myc-tagged PDLIM2 (murine Pdlim2 coding region in pCMV-Myc) (enzyme)
chain: MALTVDVAGPAPWGFRISGGRDFHTPIIVTKVTERGKAEAADLRPGDIIVAINGQSAENMLHAEAQSKIRQSASPLRLQLDRSQTASPGQTNGEGSLEVLATRFQGSLRTHRDSQSSQRSACFSPVSLSPRPCSPFSTPPPTSPVALSKEDMIGCSFQSLTHSPGLAAAHHLTYPGHPTSQQAGHSSPSDSAVRVLLHSPGRPSSPRFSSLDLEEDSEVFKMLQENRQGRAAPRQSSSFRLLQEALEAEERGGTPAFVPSSLSSQASLPTSRALATPPKLHTCEKCSVNISNQAVRIQEGRYRHPGCYTCADCGLNLKMRGHFWVGNELYCEKHARQRYSMPGTLNSRA
notes: Expressed in 293T cells and tested in whole cell extracts; also called c-Myc PDLIM2; PDZ and LIM domain protein-2; not shown: c-Myc tag from vector pCMV-Myc (Clontech)
binding result: no binding
